Measured values reported in patent US20260056186A1 (JIANGSU HENGRUI PHARMACEUTICALS, published 2026).

T1: APRIL (Acro Biosystems, Cat: APL-H52D1) (UniProt O75888 115-250, limits assumed)
T1 construct: also called ARPIL
T1 sequence (looked up): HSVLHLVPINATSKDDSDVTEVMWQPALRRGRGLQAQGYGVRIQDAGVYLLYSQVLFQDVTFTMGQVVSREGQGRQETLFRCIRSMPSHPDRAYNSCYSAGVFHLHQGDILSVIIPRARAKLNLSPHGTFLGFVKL


Key:
[1] = target: T1, APRIL (Acro Biosystems, Cat: APL-H52D1); test: ELISA, APRIL coated; reference telitacicept; range told of the 3 fusion proteins, upper end tied to B613301 by Table 8
Protocol: (§1) The capabilities of B613301, B613302, and B613303, which are fusion proteins of anifrolumab and TACI-BCMA, to bind to BAFF and APRIL were assessed by ELISA as follows: [0548] BAFF (PeproTech, Cat: 310-13) or ARPIL (Acro Biosystems, Cat: APL-H52D1) was diluted to 1 μg/mL with PBS, and a 96-well plate (Costar, Cat: 3590) was coated with the dilution overnight at 4° C. The plate was washed with PBST and blocked with Blocking Buffer (PBST containing 1% BSA) at 37° C. for 1 h. The plate was tapped. The test antibodies were diluted with Blocking Buffer. Incubation was performed at 37° C. for 1.5 h. The plate was washed with PBST. An HRP-mouse anti-human Fc antibody (GenScript, Cat: A01854-200) was diluted with Blocking Buffer. Incubation was performed at 37° C. for 40 min. The plate was washed with PBST. 100 μL of TMB substrate solution (Biopanda, Cat: TMB-S-003) was added, and color development was performed at 37° C. for 3 min. 100 μL of ELISA stop solution (Solarbio, Cat: C1058) was added. OD450 was measured.

[2] = target: T1, APRIL (Acro Biosystems, Cat: APL-H52D1); test: ELISA, APRIL coated at 1 ug/mL, anti-human Fc-HRP, OD450
Protocol: as §1

[3] = target: T1, APRIL (Acro Biosystems, Cat: APL-H52D1); test: ELISA, APRIL coated; reference telitacicept; range told of the 3 fusion proteins, lower end tied to B613302 by Table 8
Protocol: as §1

| Binder | EC50 relative to telitacicept [1] [fold] | EC50 [2] [nM] | Emax [2] | EC50 relative to telitacicept [3] [fold] |
| --- | --- | --- | --- | --- |
| B613301 (other, Fusion protein of anifrolumab and TACI-BCMA) heavy: EVQLVQSGAEVKKPGESLKISCKGSGYIFTNYWIAWVRQMPGKGLESMGIIYPGDSDIRYSPSFQGQVTISADKSITTAYLQWSSLKASDTAMYYCARHDIEGFDYWGRGTLVTVSSASTKGPSVFPLAPSSKSTSGGTAALGCLVKDYFPEPVTVSWNSGALTSGVHTFPAVLQSSGLYSLSSVVTVPSSSLGTQTYICNVNHKPSNTKVDKRVEPKSCDKTHTCPPCPAPEFEGGPSVFLFPPKPKDTLMISRTPEVTCVVVDVSHEDPEVKFNWYVDGVEVHNAKTKPREEQYNSTYRVVSVLTVLHQDWLNGKEYKCKVSNKALPASIEKTISKAKGQPREPQVYTLPPSRDELTKNQVSLTCLVKGFYPSDIAVEWESNGQPENNYKTTPPVLDSDGSFFLYSKLTVDKSRWQQGNVFSCSVMHEALHNHYTQKSLSLSPGK light: EIVLTQSPGTLSLSPGERATLSCRASQSVSSSFFAWYQQKPGQAPRLLIYGASSRATGIPDRLSGSGSGTDFTLTITRLEPEDFAVYYCQQYDSSAITFGQGTRLEIKRTVAAPSVFIFPPSDEQLKSGTASVVCLLNNFYPREAKVQWKVDNALQSGNSQESVTEQDSKDSTYSLSSTLTLSKADYEKHKVYACEVTHQGLSSPVTKSFNRGECGGGGSGGGGSLSCRKEQGKFYDHLLRDCISCASICGQHPKQCAYFCENKLRSPGMLQMAGQCSQNEYFDSLLHACIPCQLRCSSNTPPLTCQRYCNASVTNSVKGTNA | 0.167 | 0.201 | 2.49 |  |
| B613302 (other, Fusion protein of anifrolumab and TACI-BCMA) heavy: EVQLVQSGAEVKKPGESLKISCKGSGYIFTNYWIAWVRQMPGKGLESMGIIYPGDSDIRYSPSFQGQVTISADKSITTAYLQWSSLKASDTAMYYCARHDIEGFDYWGRGTLVTVSSASTKGPSVFPLAPSSKSTSGGTAALGCLVKDYFPEPVTVSWNSGALTSGVHTFPAVLQSSGLYSLSSVVTVPSSSLGTQTYICNVNHKPSNTKVDKRVEPKSCDKTHTCPPCPAPEFEGGPSVFLFPPKPKDTLMISRTPEVTCVVVDVSHEDPEVKFNWYVDGVEVHNAKTKPREEQYNSTYRVVSVLTVLHQDWLNGKEYKCKVSNKALPASIEKTISKAKGQPREPQVYTLPPSRDELTKNQVSLTCLVKGFYPSDIAVEWESNGQPENNYKTTPPVLDSDGSFFLYSKLTVDKSRWQQGNVFSCSVMHEALHNHYTQKSLSLSPGK light: EIVLTQSPGTLSLSPGERATLSCRASQSVSSSFFAWYQQKPGQAPRLLIYGASSRATGIPDRLSGSGSGTDFTLTITRLEPEDFAVYYCQQYDSSAITFGQGTRLEIKRTVAAPSVFIFPPSDEQLKSGTASVVCLLNNFYPREAKVQWKVDNALQSGNSQESVTEQDSKDSTYSLSSTLTLSKADYEKHKVYACEVTHQGLSSPVTKSFNRGECGGGGSGGGGSMLQMAGQCSQNEYFDSLLHACIPCQLRCSSNTPPLTCQRYCNASVTNSVKGTNALSCRKEQGKFYDHLLRDCISCASICGQHPKQCAYFCENKLRSPG |  | 0.124 | 2.52 | 0.1 |
